From patent US20180318440A1 (US Dept. of Health and Human Services, published 2018)

T1: human FGFR4 extracellular domain (FGFR4-ECD) (human, UniProt P22455 22-369)
T1 construct: extracellular domain; also called hFGFR4-ECD
T1 sequence (looked up): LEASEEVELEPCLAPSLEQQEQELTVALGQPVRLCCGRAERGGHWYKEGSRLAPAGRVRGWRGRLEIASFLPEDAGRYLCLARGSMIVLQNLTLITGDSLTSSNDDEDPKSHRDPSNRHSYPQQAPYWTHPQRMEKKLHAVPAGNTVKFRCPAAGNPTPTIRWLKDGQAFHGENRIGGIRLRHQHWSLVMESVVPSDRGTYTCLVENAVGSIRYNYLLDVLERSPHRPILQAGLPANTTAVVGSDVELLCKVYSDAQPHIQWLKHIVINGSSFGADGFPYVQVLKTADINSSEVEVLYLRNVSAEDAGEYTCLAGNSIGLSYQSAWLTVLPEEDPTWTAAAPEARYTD


Legend:
[1] = target: T1, human FGFR4 extracellular domain …; test: SPR (BIACORE), mAb immobilized on the chip, FGFR4-ECD in solution; 'Observed KD'
Description: (§1) The affinity of two of the FGFR4-specific mAbs was tested using surface plasmon resonance.
(§2) The mAb was immobilized in a CMS chip and the binding of FGFR4 extracellular domain (FGFR4-ECD) was detected by measuring surface plasmon resonance in a BIACORE™ instrument

[2] = target: T1, human FGFR4 extracellular domain …; test: SPR (BIACORE), mAb immobilized on the chip, FGFR4-ECD in solution
Description: as §1, §2

[3] = target: T1, human FGFR4 extracellular domain …; test: SPR (BIACORE), mAb immobilized on the chip, FGFR4-ECD in solution; column head prints 10^4, read as 10^-4 because that agrees with the printed kon and KD
Description: as §1, §2

Kd [1] [nM] | kon [2] [M⁻¹ s⁻¹] | koff [3] [s⁻¹] | Binder
110 | 1700 | 0.00018 | 57.1 rabbit anti-FGFR4 mAb (antibody, V domains shown) VH: QSVKESEGRLVTPGTPLTLTCTVSGFSLSTYAMSWVRQAPEKGLEWIGIIYATAETYYATWARGRFTISKTSTTVDLKITSPATEDTATYFCARLNGDGSGTYAYDIWGPGTLVTVSS VL: ELVMTQTPSPVSAAVGGTVTINCQASQSISSSYLSWYQQKPGQPPKLLIYKASTRPSGVSSRFKGSGSGTQFTLTISGVQCADAATYYCLYGYYIDSGADNSFGGGTEVVVK
17 | 25000 | 0.00043 | 29.2 rabbit anti-FGFR4 mAb (antibody, V domains shown) VH: QSVKESEGRLVTPGTPLTLTCTVSGFSLSSNSVGWVRQAPGKGLEWIGIISSSGNRYYASWAKGRFTISKTSTTVDLKITSPTTEDTATYFCGGDPVSWYGDIWGPGTLVTVSS VL: ELVLTQTPSSVSAAVGGTVTINCQSSPSLYKNNYLSWYQQKPGQPPKLLIYSASTLASGVPSRFKGSGSGTEYTLTISGVQCDDAATYYCLGGYSLSSDSPRAFGGGTEVVVK
